The source of these data is patent US20190002562A1 (INTERVET, published 2019).

One assay has as its target T1, canine PD-1 (canine).
T1 construct: also called canine PD-1 antigen; cPD-1
T1 chain: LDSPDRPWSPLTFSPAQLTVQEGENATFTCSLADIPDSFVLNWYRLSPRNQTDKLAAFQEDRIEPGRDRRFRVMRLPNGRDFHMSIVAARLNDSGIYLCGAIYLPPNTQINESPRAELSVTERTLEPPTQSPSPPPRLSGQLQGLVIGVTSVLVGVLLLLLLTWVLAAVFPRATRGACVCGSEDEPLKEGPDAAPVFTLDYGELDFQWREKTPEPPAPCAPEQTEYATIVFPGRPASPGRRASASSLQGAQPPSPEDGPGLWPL
As to the kind of experiment: SPR (Biacore T200), canine PD-1 amine-coupled, antibody as analyte, 1:1 fit.

Assay [1] concerns the target T2, recombinant human CD64 protein (R&D systems) (human, UniProt P12314 16-288).
T2 construct: Bought protein; also called FcγRI; FcRγI
The experiment in a line: ELISA: antibody titrated on coated PD-1 HIS, then recombinant human CD64 at 1 ug/mL, biotinylated anti-CD64 and streptavidin-HRP. How it is done: (§1) Binding to FcRγI is a measure of the ability of an antibody to mediate ADCC. In order to assess this property for the caninized antibodies an assay to measure binding of caninized antibodies to FcγRI was conducted as follows: Coat 96-well plates with 100 μl per well of 2.5 μg/mL PD-1 HIS. Incubate at 2-7° C. overnight. Equilibrate the plates to room temp for 15 minutes. Wash plates 3× with phosphate buffered saline containing 0.05% Tween® 20 (PBST) and then block the wells using 200 μL/well of 5% NFDM (Non Fat Dried Milk). Incubate for 60 minutes at 36-38° C. Wash 3× with PBST. Make 2-fold dilution of antibodies starting at 1 μg/mL in 5% NFDM. Add 100 μL/well of diluted antibodies. Incubate for 60 minutes at 36-38° C. Wash 6× with PBST. Add 100 μL/well of recombinant human CD64 protein (R&D systems) diluted to 1 μg/mL. Incubate for 60 minutes at 36-38° C. Wash 6× with PBST. Add 100 μL/well biotinylated-anti-CD64 antibody (R&D systems) diluted to 1:3000. Incubate for 60 minutes at 36-38° C. Wash 6× with PBST. Add 100 μL/well Streptavidin-HRP antibody (R&D systems) diluted to 1:7500. Incubate for 60 minutes at 36-38° C. Wash 6× with PBST. Add 100 μL/well TMB substrate. Incubate for 10 minutes at 15-30° C. Read plates using ELISA plate reader at 450-540 nm.

Assay [2] deals with T2, recombinant human CD64 protein (R&D …). The experiment in a line: ELISA: antibody captured on PD-1 HIS, recombinant human CD64 added. How it is done:
as §1

T2 sequence (P12314 16-288 limits assumed): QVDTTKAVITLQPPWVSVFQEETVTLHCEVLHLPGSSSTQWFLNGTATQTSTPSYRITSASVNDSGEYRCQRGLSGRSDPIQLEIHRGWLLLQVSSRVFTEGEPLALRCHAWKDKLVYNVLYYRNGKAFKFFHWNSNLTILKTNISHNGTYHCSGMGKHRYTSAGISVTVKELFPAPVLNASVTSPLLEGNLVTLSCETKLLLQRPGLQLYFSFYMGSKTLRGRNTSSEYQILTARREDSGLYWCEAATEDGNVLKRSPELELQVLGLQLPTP

B1: Murine 3B6 (antibody, V domains shown)
VH: QIQLVQSGPELKKPGETVKISCKASGYTFTTYGMSWVKQAPGKGLKWMGWINIYSGIPTYADDFKGRFAFSLETSASTAYLQIDNLKNEDTATYFCARFDGPDYWGQGTTLTVSS
VL: DIVMTQSPSSLAVSVGRKVTMSCKSSQSLLNSVNQKNYLAWYQQKPGQSPKVLVYFASARVSGVPDRFIGSGSGTDFTLAISSVQAEDLTTYFCQQYFSTPLTFGAGTKLELK
In the assay with canine PD-1, B1 gave a Kd of 2 nM, a koff of 3.4e-05 s⁻¹ and a kon of 18000 M⁻¹ s⁻¹.

B2: can2H9 VH4/VL3 IgGB (antibody)
heavy: EVQLVQSGGDLVKPGGSVRLSCVASGFNIKNTYMHWVRQAPGKGLQWIGRIAPANVDTKYAPKFQGKATISADTAKNTAYMQLNSLRAEDTAVYYCVLIYYDYDGDIDVWGQGTLVTVSSASTTAPSVFPLAPSCGSTSGSTVALACLVSGYFPEPVTVSWNSGSLTSGVHTFPSVLQSSGLYSLSSMVTVPSSRWPSETFTCNVAHPASKTKVDKPVPKRENGRVPRPPDCPKCPAPEMLGGPSVFIFPPKPKDTLLIARTPEVTCVVVDLDPEDPEVQISWFVDGKQMQTAKTQPREEQFNGTYRVVSVLPIGHQDWLKGKQFTCKVNNKALPSPIERTISKARGQAHQPSVYVLPPSREELSKNTVSLTCLIKDFFPPDIDVEWQSNGQQEPESKYRTTPPQLDEDGSYFLYSKLSVDKSRWQRGDTFICAVMHEALHNHYTQESLSHSPGK
light: DIVMTQTPLSLSVSLGEPASISCHASQNINVWLSWYRQKPGQIPQLLIYKASHLHTGVPDRFSGSGSGTDFTLRISRVEADDAGVYYCQQGQSWPLTFGQGTKVEIKRNDAQPAVYLFQPSPDQLHTGSASVVCLLNSFYPKDINVKWKVDGVIQDTGIQESVTEQDSKDSTYSLSSTLTMSSTEYLSHELYSCEITHKSLPSTLIKSFQRSECQRVD
notes: also called 2H9 VH4 IgGB/VL3; caninized 2H9 with un-modified IgGB Fc
As for B2, the binding result in assay [1] is given as “binds”.

B3: can2H9 IgGD VH4/VL3 (antibody)
heavy chain: EVQLVQSGGDLVKPGGSVRLSCVASGFNIKNTYMHWVRQAPGKGLQWIGRIAPANVDTKYAPKFQGKATISADTAKNTAYMQLNSLRAEDTAVYYCVLIYYDYDGDIDVWGQGTLVTVSSASTTAPSVFPLAPSCGSTSGSTVALACLVSGYFPEPVTVSWNSGSLTSGVHTFPSVLQSSGLYSLSSTVTVPSSRWPSETFTCNVVHPASNTKVDKPVPKESTCKCISPCPVPESLGGPSVFIFPPKPKDILRITRTPEITCVVLDLGREDPEVQISWFVDGKEVHTAKTQPREQQFNSTYRVVSVLPIEHQDWLTGKEFKCRVNHIGLPSPIERTISKARGQAHQPSVYVLPPSPKELSSSDTVTLTCLIKDFFPPEIDVEWQSNGQPEPESKYHTTAPQLDEDGSYFLYSKLSVDKSRWQQGDTFTCAVMHEALQNHYTDLSLSHSPGK
light chain: DIVMTQTPLSLSVSLGEPASISCHASQNINVWLSWYRQKPGQIPQLLIYKASHLHTGVPDRFSGSGSGTDFTLRISRVEADDAGVYYCQQGQSWPLTFGQGTKVEIKRNDAQPAVYLFQPSPDQLHTGSASVVCLLNSFYPKDINVKWKVDGVIQDTGIQESVTEQDSKDSTYSLSSTLTMSSTEYLSHELYSCEITHKSLPSTLIKSFQRSECQRVD
notes: also called can2H9 VH4 IgGD/VL3
As to B3, in assay [1], the binding result is “no binding (tested: log(nM) about 0.83 (1 ug/mL))”.

B4: can2H9 ADCC mut-1 VH4/VL3 (antibody)
heavy: EVQLVQSGGDLVKPGGSVRLSCVASGFNIKNTYMHWVRQAPGKGLQWIGRIAPANVDTKYAPKFQGKATISADTAKNTAYMQLNSLRAEDTAVYYCVLIYYDYDGDIDVWGQGTLVTVSSASTTAPSVFPLAPSCGSTSGSTVALACLVSGYFPEPVTVSWNSGSLTSGVHTFPSVLQSSGLYSLSSMVTVPSSRWPSETFTCNVAHPASKTKVDKPVPKRENGRVPRPPDCPKCPAPEMLGGPSVFIFPPKPKDTLLIARTPEVTCVVVALDPEDPEVQISWFVDGKQMQTAKTQPREEQFNGTYRVVSVLPIGHQDWLKGKQFTCKVNNKALPSPIERTISKARGQAHQPSVYVLPPSREELSKNTVSLTCLIKDFFPPDIDVEWQSNGQQEPESKYRTTPPQLDEDGSYFLYSKLSVDKSRWQRGDTFICAVMHEALHNHYTQESLSHSPGK
light: DIVMTQTPLSLSVSLGEPASISCHASQNINVWLSWYRQKPGQIPQLLIYKASHLHTGVPDRFSGSGSGTDFTLRISRVEADDAGVYYCQQGQSWPLTFGQGTKVEIKRNDAQPAVYLFQPSPDQLHTGSASVVCLLNSFYPKDINVKWKVDGVIQDTGIQESVTEQDSKDSTYSLSSTLTMSSTEYLSHELYSCEITHKSLPSTLIKSFQRSECQRVD
notes: also called can2H9VH4 IgGB ADCC (mut-1)/VL3; YZZ1057/Mut-1
With B4, the binding result in assay [2] was “binds”.

B5: can2H9 ADCC(1060) VH4/VL3 (antibody)
heavy: EVQLVQSGGDLVKPGGSVRLSCVASGFNIKNTYMHWVRQAPGKGLQWIGRIAPANVDTKYAPKFQGKATISADTAKNTAYMQLNSLRAEDTAVYYCVLIYYDYDGDIDVWGQGTLVTVSSASTTAPSVFPLAPSCGSTSGSTVALACLVSGYFPEPVTVSWNSGSLTSGVHTFPSVLQSSGLYSLSSMVTVPSSRWPSETFTCNVAHPASKTKVDKPVPKRENGRVPRPPDCPKCPAPEMLGGPSVFIFPPKPKDTLLIARTPEVTCVVVDLDPEDPEVQISWFVDGKQMQTAKTQPREEQFNGTYRVVSVLPIGHQDWLKGKQFTCKVNNKGLPSPIERTISKARGQAHQPSVYVLPPSREELSKNTVSLTCLIKDFFPPDIDVEWQSNGQQEPESKYRTTPPQLDEDGSYFLYSKLSVDKSRWQRGDTFICAVMHEALHNHYTQESLSHSPGK
light: DIVMTQTPLSLSVSLGEPASISCHASQNINVWLSWYRQKPGQIPQLLIYKASHLHTGVPDRFSGSGSGTDFTLRISRVEADDAGVYYCQQGQSWPLTFGQGTKVEIKRNDAQPAVYLFQPSPDQLHTGSASVVCLLNSFYPKDINVKWKVDGVIQDTGIQESVTEQDSKDSTYSLSSTLTMSSTEYLSHELYSCEITHKSLPSTLIKSFQRSECQRVD
notes: also called YZZ1060
As for B5, in assay [1], the binding result is listed as “binds”.

B6: can2H9 ADCC(1059) VH4/VL3 (antibody)
heavy: EVQLVQSGGDLVKPGGSVRLSCVASGFNIKNTYMHWVRQAPGKGLQWIGRIAPANVDTKYAPKFQGKATISADTAKNTAYMQLNSLRAEDTAVYYCVLIYYDYDGDIDVWGQGTLVTVSSASTTAPSVFPLAPSCGSTSGSTVALACLVSGYFPEPVTVSWNSGSLTSGVHTFPSVLQSSGLYSLSSMVTVPSSRWPSETFTCNVAHPASKTKVDKPVPKRENGRVPRPPDCPKCPAPEMLGGASVFIFPPKPKDTLLIARTPEVTCVVVDLDPEDPEVQISWFVDGKQMQTAKTQPREEQFNGTYRVVSVLPIGHQDWLKGKQFTCKVNNKALPSPIERTISKARGQAHQPSVYVLPPSREELSKNTVSLTCLIKDFFPPDIDVEWQSNGQQEPESKYRTTPPQLDEDGSYFLYSKLSVDKSRWQRGDTFICAVMHEALHNHYTQESLSHSPGK
light: DIVMTQTPLSLSVSLGEPASISCHASQNINVWLSWYRQKPGQIPQLLIYKASHLHTGVPDRFSGSGSGTDFTLRISRVEADDAGVYYCQQGQSWPLTFGQGTKVEIKRNDAQPAVYLFQPSPDQLHTGSASVVCLLNSFYPKDINVKWKVDGVIQDTGIQESVTEQDSKDSTYSLSSTLTMSSTEYLSHELYSCEITHKSLPSTLIKSFQRSECQRVD
notes: also called can2H9 VH4 IgGB ADCC(1059)/VL3; YZZ1059
Regarding B6, in assay [1], the binding result is “binds”.

B7: can2H9 ADCC (1061) VH4/VL3 (antibody)
heavy: EVQLVQSGGDLVKPGGSVRLSCVASGFNIKNTYMHWVRQAPGKGLQWIGRIAPANVDTKYAPKFQGKATISADTAKNTAYMQLNSLRAEDTAVYYCVLIYYDYDGDIDVWGQGTLVTVSSASTTAPSVFPLAPSCGSTSGSTVALACLVSGYFPEPVTVSWNSGSLTSGVHTFPSVLQSSGLYSLSSMVTVPSSRWPSETFTCNVAHPASKTKVDKPVPKRENGRVPRPPDCPKCPAPEMLGGPSVFIFPPKPKDTLLIARTPEVTCVVVDLDPEDPEVQISWFVDGKQMQTAKTQPREEQFNGTYRVVSVLPIGHQDWLKGKQFTCKVNNKALASPIERTISKARGQAHQPSVYVLPPSREELSKNTVSLTCLIKDFFPPDIDVEWQSNGQQEPESKYRTTPPQLDEDGSYFLYSKLSVDKSRWQRGDTFICAVMHEALHNHYTQESLSHSPGK
light: DIVMTQTPLSLSVSLGEPASISCHASQNINVWLSWYRQKPGQIPQLLIYKASHLHTGVPDRFSGSGSGTDFTLRISRVEADDAGVYYCQQGQSWPLTFGQGTKVEIKRNDAQPAVYLFQPSPDQLHTGSASVVCLLNSFYPKDINVKWKVDGVIQDTGIQESVTEQDSKDSTYSLSSTLTMSSTEYLSHELYSCEITHKSLPSTLIKSFQRSECQRVD
notes: also called can2H9 VH4 IgGB ADCC (1061)/VL3; YZZ1061
For B7, the binding result in assay [1] is listed as “binds”.
